Experimental data as given in publication PMC4841768.

Tests used:
[1] = Western blot and immunostaining, transduced MEFs; conditions: glycan lost; control: OSFLAG-WTKM
[2] = FLAG immunofluorescence, MEFs day 6; conditions: glycan lost; control: OSFLAG-WTKM
[3] = Western blot, mESCs; conditions: glycan lost; control: fSOX2-Tg mESCs
[4] = immunofluorescence, mESCs; conditions: glycan lost; control: fSOX2-Tg mESCs
[5] = label-free LC-MS of TAD peptide; conditions: glycan lost; control: fSOX2-Tg mESCs

Chain of SOX2: S248A (chain, as listed by the source S248A): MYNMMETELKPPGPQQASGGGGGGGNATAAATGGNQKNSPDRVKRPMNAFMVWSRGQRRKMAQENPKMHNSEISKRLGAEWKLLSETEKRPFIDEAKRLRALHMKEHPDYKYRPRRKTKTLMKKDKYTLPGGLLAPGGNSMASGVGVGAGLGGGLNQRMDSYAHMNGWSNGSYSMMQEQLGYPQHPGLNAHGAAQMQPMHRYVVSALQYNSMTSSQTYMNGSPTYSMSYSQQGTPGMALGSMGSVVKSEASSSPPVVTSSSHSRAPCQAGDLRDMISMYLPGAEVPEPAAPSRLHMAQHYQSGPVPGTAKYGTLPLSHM

SOX2: S248A
expression_or_secretion [1]: no change | localisation_or_trafficking [2]: no change | expression_or_secretion [3]: no change | localisation_or_trafficking [4]: no change | other: phosphorylation at S253, other: % of total TAD peptide [5]: increases, 18.7 vs 10.9
